Assay [1] addresses PDE catalytic subunit (PDEα or PDEβ) of frog rod PDE (frog (Rana catesbeiana)). Description: PDE activity on dilution (pH assay), fitted with equation (s5); frog ROS membranes at various concentrations of PDE (≤40 nM; PDE/rhodopsin taken as 1/270), in the light without GTP, 5 mM cGMP, room temperature.
The target is the same in assay [2]. Description: PDE activity on dilution (pH assay), fitted with equation (s5); purified PDE at diluted low concentrations (≤40 nM), in the light without GTP, 5 mM cGMP, room temperature; relative to trypsin-treated full activity.
Assay [3] shares this target. The assay is described as follows: co-purification (Mono Q, Superdex 200) with SDS-PAGE quantification; native PDE purified from frog ROS membranes to almost 100% purity; subunits quantified on Oriole-stained gels with bovine serum albumin as molar standard.

pKd: −log10 of the molar value. “And” between values parts separate entries of the source, which are not always exact repeats. Equal values may be shown once.

“native PDEγ of frog rod PDE (freed reversibly from the catalytic subunit) (from UniProt H1AAN5 1-87) (natural protein)”: the pKd is 10.22 to 10.40 and 10.27 in assay [1]; 11.00 and 10.70 to 11.30 in assay [2]. Moreover, the molar ratio of 2PDEγ/PDEαβ in assay [3] was 1.01.

One may read the pKd as the negative decadic logarithm of the Kd, by convention in mol/L.

For the origin of these results see paper PMC6510727.
